Assay results from the supplement of paper PMC7877785.
± gives the uncertainty stated by the source.

Experiment: self-splicing fitness, log relative to wild type (ln ratio); higher = more splicing; Tetrahymena group I intron in knt gene, E. coli kanamycin selection, DiMSum; sequences stand for … in CUCUCU…GGAGGGAAAAGUUAUCAGGCAUGCACCUGGUAGCUAGUCUUUAAACCAAUAGAUUGCAUCGGUUUAAAAGGCAAGACCGUCAAAUUGCGGGAAAGGGGUCAACAGCCGUUCAGUACCAAGUCUCAGGGGAAACUUUGAGAUGGCCUUGCAAAGGGUAUGGUAAUAAGCUGACGGACAUGGUCCUAACCACGCAGCCAAGUCCUAAGUCAACAGAUCUUCUGUUGAUAUGGAUGCAGUUCACAGACUAAAUGUCGGUCGGGGAAGAUGUAUUCUUCUCAUAAGAUAUAGUCGGACCUCUCCUUAAUGGGAGCUAGCGGAUGAAGUGAUGCAACACUGGAGCCGCUGGGAACUAAUUUGUAUGCGAAAGUAUAUUGAUUAGUUUUGGAGUACUCGUGGUCG
Procedure, shortened: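 Colonies from six replicate transformations of E. coli BL21(DE3) were pooled and amplicon-sequenced on an Illumina HiSeq 2500. The library placed an intron with all eight P1ex-region nucleotides randomised inside the knt kanamycin-resistance gene on pET-22b(+), and cells grew overnight at 37°C or 30°C on LB agar with or without 25 μg/mL kanamycin (plus 100 μg/mL carbenicillin, 50 μM IPTG, 0.2% rhamnose). Fitness is the DiMSum error-weighted combination of wild-type-normalised replicate fold changes, kanamycin versus none.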

Row | Sequence | self-splicing fitness (ln) (30 °C) | self-splicing fitness (ln) (37 °C)
1 | GGAGAGCAAUAUUACGUAAG | -2.82 ± 0.19 | -0.478 ± 0.21
2 | GGAGAGCAAUAUUACGUGCG | -1.7 ± 0.14 | -2.06 ± 0.23
3 | GGAUAGCAAUAUUACGAAAC | -1.67 ± 0.31 | -0.834 ± 0.23
4 | GGAUAGCAAUAUUACGAAUU | -2.56 ± 0.21 | -1.57 ± 0.19
5 | GGAUAGCAAUAUUACGACCC | -0.96 ± 0.23 | –
6 | GGAUAGCAAUAUUACGAGGC | -3.93 ± 0.31 | -2.43 ± 0.37
7 | GGAUAGCAAUAUUACGCAGC | -3.14 ± 0.25 | -1.59 ± 0.2
8 | GGAUAGCAAUAUUACGCAUG | -0.819 ± 0.12 | 0.00525 ± 0.14
9 | GGAUAGCAAUAUUACGCCGA | -0.933 ± 0.13 | -0.0698 ± 0.14
10 | GGAUAGCAAUAUUACGCGAU | -3.65 ± 0.3 | -2.91 ± 0.47
11 | GGAUAGCAAUAUUACGCGCA | -0.345 ± 0.14 | 0.0709 ± 0.14
12 | GGAUAGCAAUAUUACGCGCU | -2.14 ± 0.23 | -0.904 ± 0.23
13 | GGAUAGCAAUAUUACGCUAG | -2.26 ± 0.19 | -1.21 ± 0.18
14 | GGAUAGCAAUAUUACGCUUC | -3.86 ± 0.35 | –
15 | GGAUAGCAAUAUUACGGAUG | -3.16 ± 0.33 | -0.578 ± 0.18
16 | GGAUAGCAAUAUUACGGCUA | -0.0854 ± 0.16 | -0.532 ± 0.14
17 | GGAUAGCAAUAUUACGGUAG | – | -3.74 ± 0.34
18 | GGAUAGCAAUAUUACGGUAU | -1.48 ± 0.084 | -0.924 ± 0.09
19 | GGAUAGCAAUAUUACGGUGA | -2.43 ± 0.1 | -1.14 ± 0.091
20 | GGAUAGCAAUAUUACGUCAC | -2.88 ± 0.27 | -2.05 ± 0.26
21 | GGAUAGCAAUAUUACGUGGU | -2.33 ± 0.14 | -2.09 ± 0.17
22 | GGAUAGCAAUAUUACGUUGA | -3.16 ± 0.24 | -1.25 ± 0.18
23 | GGCAAGCAAUAUUACGAAAU | -0.0122 ± 0.15 | -0.727 ± 0.12
24 | GGCAAGCAAUAUUACGAACC | -2.41 ± 0.36 | -0.982 ± 0.24
25 | GGCAAGCAAUAUUACGAACG | -0.449 ± 0.068 | -0.593 ± 0.061
26 | GGCAAGCAAUAUUACGACAU | -0.288 ± 0.012 | 0.141 ± 0.032

Row | Sequence | self-splicing fitness (ln) (30 °C) | self-splicing fitness (ln) (37 °C)
27 | GGCAAGCAAUAUUACGACUU | -0.555 ± 0.082 | 0.226 ± 0.083
28 | GGCAAGCAAUAUUACGAUCA | -0.849 ± 0.12 | -0.349 ± 0.098
29 | GGCAAGCAAUAUUACGAUCC | -1.31 ± 0.22 | -0.615 ± 0.27
30 | GGCAAGCAAUAUUACGAUCU | -0.22 ± 0.097 | -0.162 ± 0.13
31 | GGCAAGCAAUAUUACGCAAG | -4.16 ± 0.36 | -2.04 ± 0.23
32 | GGCAAGCAAUAUUACGCAUA | -0.239 ± 0.12 | 0.0644 ± 0.13
33 | GGCAAGCAAUAUUACGCCCG | -2.21 ± 0.45 | –
34 | GGCAAGCAAUAUUACGCGAA | -0.953 ± 0.12 | 0.499 ± 0.13
35 | GGCAAGCAAUAUUACGCGGC | -3.13 ± 0.28 | -2.88 ± 0.41
36 | GGCAAGCAAUAUUACGCUAC | -3.33 ± 0.27 | -2.79 ± 0.23
37 | GGCAAGCAAUAUUACGCUCA | -1.21 ± 0.13 | 0.321 ± 0.17
38 | GGCAAGCAAUAUUACGCUUC | -1.44 ± 0.21 | -2.39 ± 0.42
39 | GGCAAGCAAUAUUACGGCUG | -1.68 ± 0.1 | -0.318 ± 0.16
40 | GGCAAGCAAUAUUACGGGCG | 0.0849 ± 0.086 | -0.132 ± 0.096
41 | GGCAAGCAAUAUUACGGGGG | -2.86 ± 0.16 | -2.54 ± 0.22
42 | GGCAAGCAAUAUUACGGUAG | -2.27 ± 0.11 | -2.2 ± 0.11
43 | GGCAAGCAAUAUUACGGUGA | -0.759 ± 0.071 | -0.336 ± 0.077
44 | GGCAAGCAAUAUUACGGUGG | -2.24 ± 0.11 | -1.81 ± 0.14
45 | GGCAAGCAAUAUUACGGUUC | -0.000497 ± 0.07 | -0.268 ± 0.1
46 | GGCAAGCAAUAUUACGUAGC | -2.4 ± 0.33 | -2.24 ± 0.32
47 | GGCAAGCAAUAUUACGUGCA | -0.303 ± 0.068 | -0.635 ± 0.074
48 | GGCAAGCAAUAUUACGUUAA | -1.09 ± 0.1 | -0.115 ± 0.1
49 | GGCAAGCAAUAUUACGUUAU | -0.941 ± 0.065 | -0.757 ± 0.071
50 | GGCAAGCAAUAUUACGUUGU | -3.52 ± 0.16 | -2.6 ± 0.21
51 | GGCCAGCAAUAUUACGAAAA | -2.32 ± 0.24 | -2.23 ± 0.46
52 | GGCCAGCAAUAUUACGAACA | -3.34 ± 0.28 | -2.03 ± 0.19

Row | Sequence | self-splicing fitness (ln) (30 °C) | self-splicing fitness (ln) (37 °C)
53 | GGCCAGCAAUAUUACGAGUU | -0.659 ± 0.1 | -1 ± 0.11
54 | GGCCAGCAAUAUUACGAUAA | -3.64 ± 0.4 | -1.09 ± 0.15
55 | GGCCAGCAAUAUUACGAUGG | -4.28 ± 0.33 | -2.67 ± 0.33
56 | GGCCAGCAAUAUUACGCACU | -0.947 ± 0.13 | 0.319 ± 0.16
57 | GGCCAGCAAUAUUACGCCCC | -1.65 ± 0.17 | -0.851 ± 0.26
58 | GGCCAGCAAUAUUACGCCGU | -2.39 ± 0.22 | -1.48 ± 0.19
59 | GGCCAGCAAUAUUACGCGGC | -3.46 ± 0.24 | –
60 | GGCCAGCAAUAUUACGCGUC | -2.97 ± 0.12 | -1.75 ± 0.15
61 | GGCCAGCAAUAUUACGCUAU | -1.35 ± 0.054 | -1.02 ± 0.063
62 | GGCCAGCAAUAUUACGGACA | -0.666 ± 0.12 | -1.01 ± 0.17
63 | GGCCAGCAAUAUUACGGAGC | -2.25 ± 0.18 | -0.92 ± 0.21
64 | GGCCAGCAAUAUUACGGAUA | -1.41 ± 0.12 | -1.02 ± 0.14
65 | GGCCAGCAAUAUUACGGCCA | -2.42 ± 0.16 | -1.03 ± 0.17
66 | GGCCAGCAAUAUUACGGCGA | 0.0969 ± 0.095 | 0.581 ± 0.11
67 | GGCCAGCAAUAUUACGGGAA | -1.98 ± 0.11 | -0.198 ± 0.11
68 | GGCCAGCAAUAUUACGGGCU | -2.4 ± 0.2 | -3.16 ± 0.47
69 | GGCCAGCAAUAUUACGGGGA | -0.876 ± 0.068 | -0.469 ± 0.073
70 | GGCCAGCAAUAUUACGGUAA | -0.188 ± 0.053 | 0.0838 ± 0.061
71 | GGCCAGCAAUAUUACGUAAA | -1.26 ± 0.11 | -0.35 ± 0.14
72 | GGCCAGCAAUAUUACGUAGG | -2.19 ± 0.14 | -1.85 ± 0.18
73 | GGCCAGCAAUAUUACGUCGA | -2.72 ± 0.21 | -1.46 ± 0.2
74 | GGCCAGCAAUAUUACGUUCU | -0.00519 ± 0.082 | 0.108 ± 0.089
75 | GGCCAGCAAUAUUACGUUUG | -3.15 ± 0.14 | -2.4 ± 0.18
76 | GGCGAGCAAUAUUACGAAAA | – | -2.97 ± 0.47
77 | GGCGAGCAAUAUUACGACAU | -0.665 ± 0.015 | -0.155 ± 0.034
78 | GGCGAGCAAUAUUACGACUG | -0.978 ± 0.24 | -0.589 ± 0.29
